# Reference: publication PMC5934647, “Targeting IS608 transposon integration to highly specific sequences by structure-based transposon engineering”
# T1: IS608 TnpA transposase (Helicobacter pylori (IS608), UniProt Q933Z0 1-155)
# T1 sequence: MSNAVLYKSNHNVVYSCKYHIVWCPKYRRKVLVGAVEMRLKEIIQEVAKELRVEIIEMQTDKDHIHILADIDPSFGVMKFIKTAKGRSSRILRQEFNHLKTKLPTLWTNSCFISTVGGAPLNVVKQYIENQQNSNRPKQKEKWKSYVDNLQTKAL
# B1: LE29 hairpin + T6' target oligo (structured_DNA)
# DNA 1: AAAGCCCCTAGCTTTTAGCTATGGGGATA
# DNA 2: ATTACC
# Molecular target: T1, IS608 TnpA transposase
# Experiment: X-ray crystallography (2.6 A); Ca2+; 2 LE29 and 2 T6' per TnpA dimer; pre-cleavage target capture complex; Crystal complex: TnpA:LE29:T6' 1:1:1.3, 20 mM Tris-HCl pH 7.5, 0.2 M NaCl, 0.2 mM TCEP, 2 mM EDTA; crystallized with 14.6% PEG 3350, 0.19 M calcium acetate; cleavage and integration assays are activity read-outs and not listed
# Conditions: protein: recombinant; chain copies: 2; LE29 imperfect hairpin; GL of LE29 pairs with TTAC of T6', A+42 and T+43 form base triplets; 2 copies of each strand per TnpA dimer
binder,measurement,value
B1,binding result,binds
